Measurements reported in publication PMC7010293.
Several values for one entry are separate records, joined by “and”; a condition that tells them apart may be missing. Equal entries are not always repeated.

Tests used:
Assay in all cases: SDS-PAGE under unheated, non-reducing conditions with Western blot
[1] = biological target: recombinant non-structural protein 1 (rNS1) of Dengue virus serotype 2, 6xHis-tagged (Dengue virus 2, New Guinea C strain)
[2] = biological target: recombinant non-structural protein 1 (rNS1) of Dengue virus serotype 1, 6xHis-tagged (Dengue virus 1, Hawaii A strain)
[3] = biological target: recombinant non-structural protein 1 (rNS1) of Tick-borne encephalitis virus, 6xHis-tagged (Tick-borne encephalitis virus, Neudoerfl strain)
[4] = biological target: recombinant non-structural protein 1 (rNS1) of West Nile virus, RQ10NK, 6xHis-tagged (West Nile virus, NY99 strain)
[5] = biological target: recombinant non-structural protein 1 (rNS1) of Dengue virus serotype 3, 6xHis-tagged (Dengue virus 3, Sri Lanka strain)
[6] = biological target: recombinant non-structural protein 1 (rNS1) of Zika virus, 6xHis-tagged (Zika virus, SPH2015 strain)
[7] = biological target: recombinant non-structural protein 1 (rNS1) of Dengue virus serotype 4, 6xHis-tagged (Dengue virus 4, TC25 strain)

## recombinant non-structural protein 1 (rNS1) of Dengue virus serotype 2, 6xHis-tagged (natural protein)
[1]
  stoichiometry N: 2

## recombinant non-structural protein 1 (rNS1) of Dengue virus serotype 1, 6xHis-tagged (natural protein)
[2]
  stoichiometry N: 2

## recombinant non-structural protein 1 (rNS1) of Tick-borne encephalitis virus, 6xHis-tagged (natural protein)
[3]
  stoichiometry N: 2 and 6

## recombinant non-structural protein 1 (rNS1) of West Nile virus, RQ10NK, 6xHis-tagged (natural protein)
[4]
  stoichiometry N: 2

## recombinant non-structural protein 1 (rNS1) of Dengue virus serotype 3, 6xHis-tagged (natural protein)
[5]
  stoichiometry N: 2

## recombinant non-structural protein 1 (rNS1) of Zika virus, 6xHis-tagged (natural protein)
[6]
  stoichiometry N: 2

## recombinant non-structural protein 1 (rNS1) of Dengue virus serotype 4, 6xHis-tagged (natural protein)
[7]
  stoichiometry N: 2
